Assay results as given in patent US20100184651.

System: VIP-BH3 BID fusion protein
Sequence (chain, as listed by the source): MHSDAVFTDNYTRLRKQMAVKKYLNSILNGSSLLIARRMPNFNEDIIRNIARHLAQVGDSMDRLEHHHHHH

recombinant human cathepsin D, sequence (chain, as listed by the source): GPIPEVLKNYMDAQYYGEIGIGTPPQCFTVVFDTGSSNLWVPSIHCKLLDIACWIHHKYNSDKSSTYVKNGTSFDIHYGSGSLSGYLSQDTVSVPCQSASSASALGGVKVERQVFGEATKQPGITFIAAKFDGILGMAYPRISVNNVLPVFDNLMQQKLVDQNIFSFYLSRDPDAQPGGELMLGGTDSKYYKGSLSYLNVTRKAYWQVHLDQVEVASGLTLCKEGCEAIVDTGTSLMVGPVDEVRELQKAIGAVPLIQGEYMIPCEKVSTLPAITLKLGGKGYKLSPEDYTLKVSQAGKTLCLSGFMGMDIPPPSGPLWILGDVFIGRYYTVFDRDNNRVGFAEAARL

recombinant human cathepsin D
cleavage of fusion protein by cathepsin D at ˜400:1 (w/w), followed by mass spectrometry: The first cleavage occurred at the linker by around 30 minutes of treatment with the protease
